Columns and labels:
[1] = target: Zn-containing form of the soluble domain of the Rieske-type iron-sulfur protein PetA from Thermochromatium tepidum (Thermochromatium tepidum); assay: SEC; purification step after removal of the His-tag; HiLoad 16/60 Superdex 75 in buffer A (10 mM Tris-HCl pH 7.6, 150 mM NaCl); masses estimated with low molecular weight marker mixture
[2] = target: Zn-containing form of the soluble domain of the Rieske-type iron-sulfur protein PetA from Thermochromatium tepidum (Thermochromatium tepidum); assay: SEC-MALS; Superdex 200 Increase 10/300 GL, buffer A, 0.5 mL/min, 24 °C; about 100 µL of 7.3 mg/mL protein (first colorless SEC fraction) injected

stoichiometry N [1]: 2 | stoichiometry N [2]: 2
Substance: Zn-containing form of the soluble domain of the Rieske-type iron-sulfur protein PetA from Thermochromatium tepidum (domain or fragment)

— PMC10492824
